{"source": "patent US11325966", "assay_in_all_cases": "cell-based or functional assay", "key": {"[1]": {"target": "BG505 (T332N) N295A (HIV-1)"}, "[2]": {"target": "HIV-1 Env of pseudovirus C4118.c09 (HIV-1)"}, "[3]": {"target": "HIV-1 Env of pseudovirus QH0692.42 (HIV-1)"}, "[4]": {"target": "92BR020 R327A (HIV-1)"}, "[5]": {"target": "HIV-1 Env of pseudovirus 928-28 (HIV-1)"}, "[6]": {"target": "HIV-1 Env of pseudovirus TRJO4551.58 (HIV-1)"}, "[7]": {"target": "HIV-1 Env of pseudovirus ZM53M.PB12 (HIV-1)"}, "[8]": {"target": "JR-CSF Q328A (HIV-1) (UniProt P20871)"}, "[9]": {"target": "HIV-1 Env of pseudovirus CNE20 (HIV-1)"}, "[10]": {"target": "HIV-1 Env of pseudovirus 1056_10_TA11_1826 (HIV-1)"}, "[11]": {"target": "92BR020 N136A + N156A + N301A (HIV-1)"}, "[12]": {"target": "HIV-1 Env of pseudovirus R2184.c04 (HIV-1)"}, "[13]": {"target": "92BR020 N136A + N332A (HIV-1)"}, "[14]": {"target": "HIV-1 Env of pseudovirus BJOX010000.06.2 (HIV-1)"}, "[15]": {"target": "92BR020 N156A (HIV-1)"}, "[16]": {"target": "HIV-1 Env of pseudovirus T257-31 (HIV-1)"}, "[17]": {"target": "HIV-1 Env of pseudovirus Ce1172_H1 (HIV-1)"}, "[18]": {"target": "HIV-1 Env of pseudovirus Q842.d12 (HIV-1)"}, "[19]": {"target": "HIV-1 Env of pseudovirus RHPA4259.7 (HIV-1)"}, "[20]": {"target": "HIV-1 Env of pseudovirus Ce2010_F5 (HIV-1)"}, "[21]": {"target": "HIV-1 Env of pseudovirus 6244_13_B5_4576 (HIV-1)"}, "[22]": {"target": "HIV-1 Env of pseudovirus Q769.d22 (HIV-1)"}, "[23]": {"target": "HIV-1 Env of pseudovirus 0815.v3.c3 (HIV-1)"}, "[24]": {"target": "HIV-1 Env of pseudovirus CNE30 (HIV-1)"}, "[25]": {"target": "HIV-1 Env of pseudovirus 3016.v5.c45 (HIV-1)"}, "[26]": {"target": "HIV-1 Env of pseudovirus Ce0682_E4 (HIV-1)"}, "[27]": {"target": "HIV-1 Env of pseudovirus BJOX015000.11.5 (HIV-1)"}, "[28]": {"target": "HIV-1 Env of pseudovirus ZM214M.PL15 (HIV-1)"}, "[29]": {"target": "HIV-1 Env of pseudovirus C1080.c03 (HIV-1)"}, "[30]": {"target": "HIV-1 Env of pseudovirus PVO.4 (HIV-1)"}, "[31]": {"target": "92BR020 H33OA (HIV-1)"}, "[32]": {"target": "HIV-1 Env of pseudovirus CNE8 (HIV-1)"}, "[33]": {"target": "JR-CSF N386A (HIV-1) (UniProt P20871)"}, "[34]": {"target": "HIV-1 Env of pseudovirus 231965.c01 (HIV-1)"}, "[35]": {"target": "HIV-1 Env of pseudovirus 6480.v4.c25 (HIV-1)"}, "[36]": {"target": "HIV-1 Env of pseudovirus 3301.v1.c24 (HIV-1)"}, "[37]": {"target": "BG505 (T332N) N392A (HIV-1)"}, "[38]": {"target": "HIV-1 Env of pseudovirus CAP210.2.00.E8 (HIV-1)"}, "[39]": {"target": "HIV-1 Env of pseudovirus 235-47 (HIV-1)"}, "[40]": {"target": "92BR020 N136A (HIV-1)"}, "[41]": {"target": "HIV-1 Env of pseudovirus HIV-001428-2.42 (HIV-1)"}, "[42]": {"target": "92BR020 Q328A (HIV-1)"}, "[43]": {"target": "HIV-1 Env of pseudovirus HIV-16845-2.22 (HIV-1)"}}, "data": [{"substance": "PGT121 (antibody)", "values": [{"measurement": "IC50 in TZM-bl assay", "setting": "[1]", "result": 0.014, "unit": "µg/mL"}, {"measurement": "IC50 in TZM-bl assay", "setting": "[2]", "result": "> 10", "unit": "µg/mL"}, {"measurement": "IC80 in TZM-bl assay", "setting": "[2]", "result": "> 10", "unit": "µg/mL"}, {"measurement": "IC50 in TZM-bl assay", "setting": "[3]", "result": 0.498, "unit": "µg/mL"}, {"measurement": "IC80 in TZM-bl assay", "setting": "[3]", "result": 8.51, "unit": "µg/mL"}, {"measurement": "IC50 in TZM-bl assay", "setting": "[4]", "result": 0.001, "unit": "µg/mL"}, {"measurement": "IC50 in TZM-bl assay", "setting": "[5]", "result": "> 10", "unit": "µg/mL"}, {"measurement": "IC80 in TZM-bl assay", "setting": "[5]", "result": "> 10", "unit": "µg/mL"}, {"measurement": "IC50 in TZM-bl assay", "setting": "[6]", "result": 0.802, "unit": "µg/mL"}, {"measurement": "IC80 in TZM-bl assay", "setting": "[6]", "result": "> 10", "unit": "µg/mL"}, {"measurement": "IC50 in TZM-bl assay", "setting": "[7]", "result": 0.001, "unit": "µg/mL"}, {"measurement": "IC80 in TZM-bl assay", "setting": "[7]", "result": 0.005, "unit": "µg/mL"}, {"measurement": "IC50 in TZM-bl assay", "setting": "[8]", "result": 0.057, "unit": "µg/mL"}, {"measurement": "IC50 in TZM-bl assay", "setting": "[9]", "result": 0.003, "unit": "µg/mL"}, {"measurement": "IC80 in TZM-bl assay", "setting": "[9]", "result": 0.006, "unit": "µg/mL"}, {"measurement": "IC50 in TZM-bl assay", "setting": "[10]", "result": 0.034, "unit": "µg/mL"}, {"measurement": "IC80 in TZM-bl assay", "setting": "[10]", "result": 0.148, "unit": "µg/mL"}, {"measurement": "IC50 in TZM-bl assay", "setting": "[11]", "result": 0.001, "unit": "µg/mL"}, {"measurement": "IC50 in TZM-bl assay", "setting": "[12]", "result": "> 10", "unit": "µg/mL"}, {"measurement": "IC80 in TZM-bl assay", "setting": "[12]", "result": "> 10", "unit": "µg/mL"}, {"measurement": "IC50 in TZM-bl assay", "setting": "[13]", "result": "> 1", "unit": "µg/mL"}, {"measurement": "IC50 in TZM-bl assay", "setting": "[14]", "result": "> 10", "unit": "µg/mL"}, {"measurement": "IC80 in TZM-bl assay", "setting": "[14]", "result": "> 10", "unit": "µg/mL"}, {"measurement": "IC50 in TZM-bl assay", "setting": "[15]", "result": 0.003, "unit": "µg/mL"}, {"measurement": "IC50 in TZM-bl assay", "setting": "[16]", "result": "> 10", "unit": "µg/mL"}, {"measurement": "IC80 in TZM-bl assay", "setting": "[16]", "result": "> 10", "unit": "µg/mL"}, {"measurement": "IC50 in TZM-bl assay", "setting": "[17]", "result": 0.007, "unit": "µg/mL"}, {"measurement": "IC80 in TZM-bl assay", "setting": "[17]", "result": 0.03, "unit": "µg/mL"}, {"measurement": "IC50 in TZM-bl assay", "setting": "[18]", "result": 0.01, "unit": "µg/mL"}, {"measurement": "IC80 in TZM-bl assay", "setting": "[18]", "result": 0.037, "unit": "µg/mL"}, {"measurement": "IC50 in TZM-bl assay", "setting": "[19]", "result": 0.013, "unit": "µg/mL"}, {"measurement": "IC80 in TZM-bl assay", "setting": "[19]", "result": 0.046, "unit": "µg/mL"}, {"measurement": "IC50 in TZM-bl assay", "setting": "[20]", "result": "> 10", "unit": "µg/mL"}, {"measurement": "IC80 in TZM-bl assay", "setting": "[20]", "result": "> 10", "unit": "µg/mL"}, {"measurement": "IC50 in TZM-bl assay", "setting": "[21]", "result": 0.172, "unit": "µg/mL"}, {"measurement": "IC80 in TZM-bl assay", "setting": "[21]", "result": 1.47, "unit": "µg/mL"}, {"measurement": "IC50 in TZM-bl assay", "setting": "[22]", "result": "> 10", "unit": "µg/mL"}, {"measurement": "IC80 in TZM-bl assay", "setting": "[22]", "result": "> 10", "unit": "µg/mL"}, {"measurement": "IC50 in TZM-bl assay", "setting": "[23]", "result": 0.017, "unit": "µg/mL"}, {"measurement": "IC80 in TZM-bl assay", "setting": "[23]", "result": 0.085, "unit": "µg/mL"}, {"measurement": "IC50 in TZM-bl assay", "setting": "[24]", "result": 0.088, "unit": "µg/mL"}, {"measurement": "IC80 in TZM-bl assay", "setting": "[24]", "result": 0.288, "unit": "µg/mL"}, {"measurement": "IC50 in TZM-bl assay", "setting": "[25]", "result": "> 10", "unit": "µg/mL"}, {"measurement": "IC80 in TZM-bl assay", "setting": "[25]", "result": "> 10", "unit": "µg/mL"}, {"measurement": "IC50 in TZM-bl assay", "setting": "[26]", "result": "> 10", "unit": "µg/mL"}, {"measurement": "IC80 in TZM-bl assay", "setting": "[26]", "result": "> 10", "unit": "µg/mL"}, {"measurement": "IC50 in TZM-bl assay", "setting": "[27]", "result": "> 10", "unit": "µg/mL"}, {"measurement": "IC80 in TZM-bl assay", "setting": "[27]", "result": "> 10", "unit": "µg/mL"}, {"measurement": "IC50 in TZM-bl assay", "setting": "[28]", "result": 0.288, "unit": "µg/mL"}, {"measurement": "IC80 in TZM-bl assay", "setting": "[28]", "result": 2.46, "unit": "µg/mL"}, {"measurement": "IC50 in TZM-bl assay", "setting": "[29]", "result": "> 10", "unit": "µg/mL"}, {"measurement": "IC80 in TZM-bl assay", "setting": "[29]", "result": "> 10", "unit": "µg/mL"}, {"measurement": "IC50 in TZM-bl assay", "setting": "[30]", "result": 0.094, "unit": "µg/mL"}, {"measurement": "IC80 in TZM-bl assay", "setting": "[30]", "result": 0.45, "unit": "µg/mL"}, {"measurement": "IC50 in TZM-bl assay", "setting": "[31]", "result": 0.003, "unit": "µg/mL"}, {"measurement": "IC50 in TZM-bl assay", "setting": "[32]", "result": "> 10", "unit": "µg/mL"}, {"measurement": "IC80 in TZM-bl assay", "setting": "[32]", "result": "> 10", "unit": "µg/mL"}, {"measurement": "IC50 in TZM-bl assay", "setting": "[33]", "result": 0.024, "unit": "µg/mL"}, {"measurement": "IC50 in TZM-bl assay", "setting": "[34]", "result": "> 10", "unit": "µg/mL"}, {"measurement": "IC80 in TZM-bl assay", "setting": "[34]", "result": "> 10", "unit": "µg/mL"}, {"measurement": "IC50 in TZM-bl assay", "setting": "[35]", "result": 0.008, "unit": "µg/mL"}, {"measurement": "IC50 in TZM-bl assay", "setting": "[36]", "result": 0.013, "unit": "µg/mL"}, {"measurement": "IC80 in TZM-bl assay", "setting": "[36]", "result": 0.041, "unit": "µg/mL"}, {"measurement": "IC50 in TZM-bl assay", "setting": "[37]", "result": 0.006, "unit": "µg/mL"}, {"measurement": "IC50 in TZM-bl assay", "setting": "[38]", "result": "> 10", "unit": "µg/mL"}, {"measurement": "IC80 in TZM-bl assay", "setting": "[38]", "result": "> 10", "unit": "µg/mL"}, {"measurement": "IC50 in TZM-bl assay", "setting": "[39]", "result": 0.259, "unit": "µg/mL"}, {"measurement": "IC80 in TZM-bl assay", "setting": "[39]", "result": 1.6, "unit": "µg/mL"}, {"measurement": "IC50 in TZM-bl assay", "setting": "[40]", "result": 0.002, "unit": "µg/mL"}, {"measurement": "IC50 in TZM-bl assay", "setting": "[41]", "result": 0.02, "unit": "µg/mL"}, {"measurement": "IC80 in TZM-bl assay", "setting": "[41]", "result": 0.126, "unit": "µg/mL"}, {"measurement": "IC50 in TZM-bl assay", "setting": "[42]", "result": 0.002, "unit": "µg/mL"}, {"measurement": "IC50 in TZM-bl assay", "setting": "[43]", "result": 8.51, "unit": "µg/mL"}, {"measurement": "IC80 in TZM-bl assay", "setting": "[43]", "result": "> 10", "unit": "µg/mL"}]}]}
